Read-outs that look alike come from different tables or passages of the source.
T1: monkey PD-1 with mFc (monkey)
T1 construct: also called monkey PD-1-mFc; monkey PD-1 dimer
T1 chain: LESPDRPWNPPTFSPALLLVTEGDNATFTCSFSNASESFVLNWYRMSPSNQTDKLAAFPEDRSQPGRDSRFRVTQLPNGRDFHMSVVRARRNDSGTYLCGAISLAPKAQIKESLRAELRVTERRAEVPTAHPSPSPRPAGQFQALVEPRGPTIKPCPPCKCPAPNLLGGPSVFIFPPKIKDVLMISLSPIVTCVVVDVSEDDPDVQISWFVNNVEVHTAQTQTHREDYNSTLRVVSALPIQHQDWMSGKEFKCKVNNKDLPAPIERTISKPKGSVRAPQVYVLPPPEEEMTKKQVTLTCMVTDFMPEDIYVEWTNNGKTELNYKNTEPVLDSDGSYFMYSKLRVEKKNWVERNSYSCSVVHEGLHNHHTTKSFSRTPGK

T2: recombinant cynomolgus monkey PD-1 expressed with a C-terminal myc-myc-hexahistidine tag (cynomolgus monkey (Macaca fascicularis))
T2 construct: monomeric; also called MfPD-1-MMH
T2 chain: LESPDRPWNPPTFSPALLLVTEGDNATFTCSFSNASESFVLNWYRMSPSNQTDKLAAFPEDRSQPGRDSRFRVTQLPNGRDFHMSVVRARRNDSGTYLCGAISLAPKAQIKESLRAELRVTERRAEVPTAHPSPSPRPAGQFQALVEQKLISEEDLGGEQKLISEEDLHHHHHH


Experiments:
[1] = target: T3, PD-1 chimera: extracellular domain of human PD-1 with trans-membrane and cytoplasmic domains of human CD300a, … (human, UniProt Q9UGN4 181-299, limits assumed); test: cell-based or functional assay
[2] = target: T4, recombinant human PD-1 expressed with a C-terminal human IgG1 Fc tag (human); test: SPR Biacore 3000: 100 nM hPD-1.hFc + 500 nM mAb to captured hPD-L1.mFc;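 also: inhibition study with anti-PD-1 mAbs, SPR responses tracked in real time and read at the close of each step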
T4 construct: also called hPD-1-hFc; hPD1-hFc

[3] = target: T5, recombinant human PD-L1 expressed with a C-terminal mouse IgG2a Fc tag (human); test: SPR Biacore 3000: 500 nM mAb alone (no hPD-1.hFc) over captured hPD-L1.mFc surface, control
T5 construct: also called hPD-L1-mFc; hPD-L1.mFc

[4] = target: T1, monkey PD-1 with mFc; test: SPR, captured mAb, 37 C;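 also: Real-time Biacore surface plasmon resonance biosensor readout of PD-1 reagent binding to purified anti-PD-1 monoclonal antibodies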
[5] = target: T6, full length human PD-1 on HEK293/hPD-1 cells (human, UniProt Q15116 25-288); test: FACS dose response, HEK293/hPD-1 cells
[6] = target: T3, PD-1 chimera: extracellular domain of …; test: cell-based or functional assay; remark: listed apart in the source
[7] = target: T1, monkey PD-1 with mFc; test: SPR, captured mAb, 25 C;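 also: purified anti-PD-1 antibodies tested on Biacore 4000 or T200 instruments, rate constants obtained via 1:1 binding model fit, with KD as kd/ka and half-life as ln2/(60·kd)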
[8] = target: T6, full length human PD-1 on HEK293/hPD-1 …; test: FACS, 100 nM mAb, HEK293/hPD-1 cells;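 also: antibodies incubated with cells for 15-30 min on ice, bound antibody detected through a secondary F(ab′)2 by flow cytometry, with parental HEK293 cells tested in parallel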
[9] = target: T6, full length human PD-1 on HEK293/hPD-1 …; test: FACS, 100 nM mAb
[10] = target: T6, full length human PD-1 on HEK293/hPD-1 …; test: FACS dose response, HEK293/hPD-1 cells; No EC50 determined
[11] = target: T7, recombinant human PD-1 dimer expressed with a C-terminal mouse IgG2a Fc tag (human); test: BLI Octet: 100 nM hPD-1-mFc + 500 nM mAb to captured hPD-L1-hFc
T7 construct: also called hPD-1-mFc

[12] = target: T2, recombinant cynomolgus monkey PD-1 …; test: SPR, mAb captured, 25C; 25 C
[13] = target: T8, human PD-1 dimer (human PD-1-mFc or human PD-1-hFc) (human, UniProt Q15116 25-170); test: SPR, mAb captured, 37C;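 also: Real-time Biacore biosensor, PD-1 dimer flowed over anti-PD-1 antibody surface, rate constants fitted to a 1:1 model, KD derived as kd/ka and t½ as ln2/(60·kd)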
T8 construct: also called hPD-1-mFc; hPD1-hFc

[14] = target: T8, human PD-1 dimer (human PD-1-mFc or …); test: SPR, mAb captured, 25C;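 also: surface plasmon resonance on Biacore, PD-1 flowed over captured anti-PD-1 antibodies, rate constants from a 1:1 binding model fit, KD taken as kd/ka and t½ as ln2/(60·kd)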
[15] = target: T6, full length human PD-1 on HEK293/hPD-1 …; test: FACS dose response, HEK293/hPD-1 cells; EC50 Inconclusive

T6 sequence (Q15116 25-288 limits assumed): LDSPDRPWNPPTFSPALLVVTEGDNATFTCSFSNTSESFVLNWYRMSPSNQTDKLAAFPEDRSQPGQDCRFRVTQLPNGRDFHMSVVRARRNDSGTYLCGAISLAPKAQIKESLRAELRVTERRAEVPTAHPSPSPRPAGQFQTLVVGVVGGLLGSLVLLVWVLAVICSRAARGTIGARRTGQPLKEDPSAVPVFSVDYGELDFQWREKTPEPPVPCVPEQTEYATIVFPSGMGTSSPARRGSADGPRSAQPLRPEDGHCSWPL
T3 sequence (Q9UGN4 other isoform, or with tags, fused parts or gaps mutant limits assumed, form in doubt): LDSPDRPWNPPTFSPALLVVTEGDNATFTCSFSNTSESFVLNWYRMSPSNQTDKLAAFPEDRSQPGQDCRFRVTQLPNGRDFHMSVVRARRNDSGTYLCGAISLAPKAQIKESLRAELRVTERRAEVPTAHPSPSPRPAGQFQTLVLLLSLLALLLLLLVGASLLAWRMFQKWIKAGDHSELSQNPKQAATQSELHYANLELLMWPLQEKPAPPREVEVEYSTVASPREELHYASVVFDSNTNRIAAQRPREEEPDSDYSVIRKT
T4 sequence (chain, as listed by the source limits assumed): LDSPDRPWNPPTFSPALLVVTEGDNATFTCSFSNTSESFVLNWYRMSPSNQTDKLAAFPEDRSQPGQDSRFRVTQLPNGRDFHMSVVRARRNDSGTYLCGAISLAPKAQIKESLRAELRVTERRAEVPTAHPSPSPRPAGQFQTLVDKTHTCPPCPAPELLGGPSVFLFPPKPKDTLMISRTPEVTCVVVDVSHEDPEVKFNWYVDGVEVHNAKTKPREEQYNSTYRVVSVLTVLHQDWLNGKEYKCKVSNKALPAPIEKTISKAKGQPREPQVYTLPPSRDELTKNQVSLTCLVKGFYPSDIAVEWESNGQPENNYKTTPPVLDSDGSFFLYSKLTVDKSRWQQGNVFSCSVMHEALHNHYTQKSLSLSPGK
T7 sequence (chain, as listed by the source limits assumed): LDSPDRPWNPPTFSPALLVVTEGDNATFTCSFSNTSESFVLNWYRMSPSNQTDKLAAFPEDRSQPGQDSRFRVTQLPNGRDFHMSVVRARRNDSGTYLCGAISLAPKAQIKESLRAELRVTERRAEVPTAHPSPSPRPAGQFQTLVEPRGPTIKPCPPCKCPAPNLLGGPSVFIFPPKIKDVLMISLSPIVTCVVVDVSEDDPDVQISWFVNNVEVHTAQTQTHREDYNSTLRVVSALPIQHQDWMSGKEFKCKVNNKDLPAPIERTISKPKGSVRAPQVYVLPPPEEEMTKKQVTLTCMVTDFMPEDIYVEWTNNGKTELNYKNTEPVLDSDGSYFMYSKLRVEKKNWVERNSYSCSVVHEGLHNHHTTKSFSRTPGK
T8 sequence (Q15116 25-170 C93S): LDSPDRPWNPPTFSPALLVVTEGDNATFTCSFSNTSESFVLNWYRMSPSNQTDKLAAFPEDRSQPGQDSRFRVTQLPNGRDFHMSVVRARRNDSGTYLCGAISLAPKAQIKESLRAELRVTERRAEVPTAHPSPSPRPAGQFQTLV

Emax mean [%] @ 100 nM [1] [%] | % Blocking [2] [%] | binding of the mixture (RU) [2] [RU] | 500 nM of anti-PD-1 monoclonal antibody (RU) [3] [RU] | 100 nM Monkey PD-1-mFc Bound (RU) [4] [RU] | Kd [4] [nM] | koff [4] [s⁻¹] | kon [4] [M⁻¹ s⁻¹] | t1/2 [4] [h] | Emax mean [%] @ 100 nM [6] [%] | 100 nM Monkey PD-1-mFc Bound (RU) [7] [RU] | Kd [7] [nM] | koff [7] [s⁻¹] | kon [7] [M⁻¹ s⁻¹] | t1/2 [7] [h] | MFI [8] [MFI] | ratio of MFI HEK293/hPD-1 to HEK293 parental cells [9] | Max Geom. Mean MFI @ 100 nM [10] [MFI] | % Blocking [11] [%] | binding of the mixture (nm) [11] [nm] | Binder | also measured
202 | 106 | -6 | -6 | 88 | 0.202 | 0.000127 | 630000 | 1.52 | 343 | 93 | 0.137 | 6.14e-05 | 449000 | 3.13 | – | – | – | – | – | H4H7798N (antibody, human IgG4 S228P, kappa, V domains shown, human IgG4 Fc) VH: EVQLLESGGVLVQPGGSLRLSCAASGFTFSNFGMTWVRQAPGKGLEWVSGISGGGRDTYFADSVKGRFTISRDNSKNTLYLQMNSLKGEDTAVYYCVKWGNIYFDYWGQGTLVTVSS VL: DIQMTQSPSSLSASVGDSITITCRASLSINTFLNWYQQKPGKAPNLLIYAASSLHGGVPSRFSGSGSGTDFTLTIRTLQPEDFATYYCQQSSNTPFTFGPGTVVDFRR | Concentration (M) of Antibody at 150% activation [1]: 1.54e-09 M; EC50 [5]: 0.509 nM; Max Geom. Mean MFI @ 100 nM [5]: 20300 MFI
– | 106 | -6 | -5 | 47 | 1.71 | 0.00029 | 170000 | 0.667 | 110 | 60 | 0.621 | 9.92e-05 | 160000 | 1.93 | – | – | – | – | – | H4H7795N2 (antibody, human IgG4 S228P, kappa, V domains shown, human IgG4 Fc) VH: EVQVVESGGGLVEPGRSLRLSCKASGFTFDDYAMHWVRQTPGKALEWVSGISWSGNNIGYADSVKGRFTISKDDAKNSLYLQMNSLRPEDTALYYCTKDISITGTLDAFDVWGQGTMVTVSS VL: DIQMTQSPISVSASVGDRVTITCRASQGISNWLAWYQQKPGIAPKLLIYSASSLQSGVPSRFRGSGSGTDFTLTIGSLQPEDFATYYCQQAHSFPLTFGGGTKVEIKR | Max Geom. Mean MFI @ 100 nM [15]: 15200 MFI

Second part, the binder before the results:

Binder | Emax mean [%] @ 100 nM [1] [%] | % Blocking [2] [%] | binding of the mixture (RU) [2] [RU] | 500 nM of anti-PD-1 monoclonal antibody (RU) [3] [RU] | 100 nM Monkey PD-1-mFc Bound (RU) [4] [RU] | Kd [4] [nM] | koff [4] [s⁻¹] | kon [4] [M⁻¹ s⁻¹] | t1/2 [4] [h] | Emax mean [%] @ 100 nM [6] [%] | 100 nM Monkey PD-1-mFc Bound (RU) [7] [RU] | Kd [7] [nM] | koff [7] [s⁻¹] | kon [7] [M⁻¹ s⁻¹] | t1/2 [7] [h] | MFI [8] [MFI] | ratio of MFI HEK293/hPD-1 to HEK293 parental cells [9] | Max Geom. Mean MFI @ 100 nM [10] [MFI] | % Blocking [11] [%] | binding of the mixture (nm) [11] [nm] | also measured
H2aM7791N (antibody, V domains shown, human variable regions, mouse IgG2a Fc; also called H2M7791N) VH: QMQLQQWGAGLLKPSETLSLTCVVYGGSLNGYYWSWIRQSPGKGLEWIGEIDHSGSTNYNPSLKNRVTMSVDTSKIQFSLKLTSVTVADTAVYYCAREGLLPFDYWGQGTLVTVSS VL: EIVLTQSPGTLSLSPGERVTLSCRASQSVYSNYLAWYQQNPGQAPRLLIYAASNRATGIPDRFSGSGSGTDFTLTISRLEPEDFAVYYCHQYATSPWTFGQGTKVEIK | 103 | – | – | – | – | – | – | – | – | – | – | – | – | – | – | 4950 | 18 | 1400 | -229 | 0.23 | –
H4H9057P2 (antibody, human IgG4, V domains shown, Fully human; H4H prefix (human IgG4 Fc)) VH: EVQLVESGGGLVQSGRSLRLSCAASGFTFDDYAMHWVRQPPGKGLEWVSGINWNRGRTGYADSVKGRFTISRDNAKNSLYLQMNDLRVEDTALYYCAKAEQWLDEGYFDYWGQGTLVTVSS VL: not shown | – | – | – | – | – | – | – | – | – | – | – | – | – | – | – | – | – | – | – | – | Kd [12]: 551 nM; koff [12]: 0.0191 s⁻¹; kon [12]: 34600 M⁻¹ s⁻¹; t½ [12]: 36 s; Kd [13]: 9.07 nM; koff [13]: 0.00211 s⁻¹; kon [13]: 233000 M⁻¹ s⁻¹; t½ [13]: 5 min; Kd [14]: 1.75 nM; koff [14]: 0.000177 s⁻¹; kon [14]: 101000 M⁻¹ s⁻¹; t½ [14]: 1.08 h
H2aM7795N (antibody, V domains shown, human variable regions, mouse IgG2a Fc; also called H2M7795N) VH: EVQVVESGGGLVEPGRSLRLSCKASGFTFDDYAMHWVRQTPGKALEWVSGINWSGNNIGYADSVKGRFTISKDDAKNSLYLQMNSLRPEDTALYYCTKDISITGTLDAFDVWGQGTMVTVSS VL: DIQMTQSPISVSASVGDRVTITCRASQGISNWLAWYQQKPGIAPKLLIYSASSLQSGVPSRFRGSGSGTDFTLTIGSLQPEDFATYYCQQAHSFPLTFGGGTKVEIK | 109 | – | – | – | – | – | – | – | – | – | – | – | – | – | – | 817 | 2.8 | 624 | 114 | -0.01 | –

Source: patent publication US20150203579A1 (Regeneron, published 2015)
